For 1 protein, Km and kcat results are on record in PMC6690965, “OsCAldOMT1 is a bifunctional O-methyltransferase involved in the biosynthesis of tricin-lignins in rice cell walls” (Scientific Reports, 2019).

Substrate in data set [1]: COc1cc(-c2cc(=O)c3c(O)cc(O)cc3o2)cc(O)c1O
As to the kind of experiment: HPLC/LC-MS O-methylation assay, Michaelis-Menten fit. Particulars: 50 mM Tris-HCl pH 7.5, co-substrate S-adenosyl-L-methionine, 20 min, 10-200 µM substrate, 5'-O-methylation giving tricin. The format is biochemical, Oryza sativa.

Substrate in data set [2]: COc1cc(/C=C/C=O)cc(O)c1O
Described as above. The format is biochemical, Oryza sativa. The settings on record: 50 mM Tris-HCl pH 7.5, co-substrate S-adenosyl-L-methionine, 20 min, 10-200 µM substrate.

B1: OsCAldOMT1 (Oryza sativa Japonica Group) (protein)
chain: MGSTAADMAAAADEEACMYALQLASSSILPMTLKNAIELGLLETLQSAAVAGGGGKAALLTPAEVADKLPSKANPAAADMVDRMLRLLASYNVVRCEMEEGADGKLSRRYAAAPVCKWLTPNEDGVSMAALALMNQDKVLMESWYYLKDAVLDGGIPFNKAYGMTAFEYHGTDARFNRVFNEGMKNHSVIITKKLLDLYTGFDAASTVVDVGGGVGATVAAVVSRHPHIRGINYDLPHVISEAPPFPGVEHVGGDMFASVPRGGDAILMKWILHDWSDEHCARLLKNCYDALPEHGKVVVVECVLPESSDATAREQGVFHVDMIMLAHNPGGKERYEREFRELARAAGFTGFKATYIYANAWAIEFTK
For the protein B1, the Km (commonly the substrate concentration at which the rate is half of its maximum) in data set [1] is 68.2 ± 14.5 µM; in data set [2] it was 132.8 ± 21.3 µM. Further, the figures for the kcat in data set [1] and in data set [2] were 158.5 ± 16.6 s⁻¹ and 373.0 ± 37.9 s⁻¹, respectively.
